Reference: US7521540B2, “CYR61 compositions and methods” (Munin Corporation, priority 1996, dated 2009)

Columns and labels:
[1] = tested on: Human Microvascular Endothelial Cells; experiment: Endothelial cell migration, inverted modified Boyden chamber; format: cell-based
Description: In an alternative in vitro assay for angiogenic activity, an assay for endothelial cell migration was developed. […] Primary Human Microvascular Endothelial Cells (HMVEC PO51, Clonetics, San Diego, Calif.) were maintained in DME with 10% donor calf serum (Flow Laboratories, McLean, Va.) and 100 μg/ml endothelial celi mitogen (Biomedical Technologies Inc., Stoughton, Mass.). The cells were used between passages 10 and 15. To measure migration, cells were starved for 24 hours in DME containing 0.1% BSA, harvested, resuspended in DME with 0.1% BSA, and plated at 1.75×10^4 cells/well on the lower surface of a gelatinized 0.5 μm filter (Nucleopore Corporation, Pleasanton. Calif.) in an inverted modified Boyden chamber. After 1-2 hours at 37° C., during which time the cells were allowed to adhere to the filter, the chamber was reverted to its normal position. To the top well of separate chambers, basic Fibroblast Growth Factor (a positive control), Cyr61, or a negative control solution (conditioned medium known to lack chemoattractants or DME plus BSA, see below) was added at concentrations ranging from 10 ng/ml to 10 μg/ml. Chambers were then incubated for 3-4 hours at 37° C. to allow migration. Chambers were disassembled, membranes fixed and stained, and the number of cells that had migrated to the top of the filter in 3 high-powered fields was determined. Tolsma et al., J. Cell. Biol. 122:497-511 (1993) (incorporated by reference), and references cited therein. DME with 0.1% BSA was used as a negative control and either bFGF (10 ng/ml) or conditioned media from angiogenic hamster cell lines (20 μg/ml total protein) were used as positive controls. Rastinejad et al., Cell 56:345-355 (1989). Each sample was tested in quadruplicate (test compound such as Cyr61, positive control, conditioned medium as a negative control, and DME plus BSA as a negative control) in a single experiment; experiments were repeated at least twice.
To allow comparison of experiments performed on different days, migration data is reported as the percent of maximum migration towards the positive control, calculated after subtraction of background migration observed in the presence of DME plus BSA. […] Very high concentrations of thrombospondin (TSP) caused endothelial cells to detach from the membrane. Detachment was detected by counting cells on the lower face of the membrane. When cell loss exceeded 10%, the number of migrated cells was corrected for this loss. […] At 10 ng/ml, Cyr61 induced an average of 64 cells to migrate per three high-powered fields examined.

[2] = target: T1, αVβ3 integrin (Homo sapiens, UniProt P05106+P06756); experiment: Integrin binding assay (ligand-receptor ELISA); conditions: 1 μg/ml Cyr61 or 0.1 μg/ml vitronectin
T1 construct: αVβ3 integrin purification from HUVE cell lysates was done as described in Pytela et al; endogenous in cells; host or cells: HUVE cells
T1 sequence (P06756 31-889 limits assumed): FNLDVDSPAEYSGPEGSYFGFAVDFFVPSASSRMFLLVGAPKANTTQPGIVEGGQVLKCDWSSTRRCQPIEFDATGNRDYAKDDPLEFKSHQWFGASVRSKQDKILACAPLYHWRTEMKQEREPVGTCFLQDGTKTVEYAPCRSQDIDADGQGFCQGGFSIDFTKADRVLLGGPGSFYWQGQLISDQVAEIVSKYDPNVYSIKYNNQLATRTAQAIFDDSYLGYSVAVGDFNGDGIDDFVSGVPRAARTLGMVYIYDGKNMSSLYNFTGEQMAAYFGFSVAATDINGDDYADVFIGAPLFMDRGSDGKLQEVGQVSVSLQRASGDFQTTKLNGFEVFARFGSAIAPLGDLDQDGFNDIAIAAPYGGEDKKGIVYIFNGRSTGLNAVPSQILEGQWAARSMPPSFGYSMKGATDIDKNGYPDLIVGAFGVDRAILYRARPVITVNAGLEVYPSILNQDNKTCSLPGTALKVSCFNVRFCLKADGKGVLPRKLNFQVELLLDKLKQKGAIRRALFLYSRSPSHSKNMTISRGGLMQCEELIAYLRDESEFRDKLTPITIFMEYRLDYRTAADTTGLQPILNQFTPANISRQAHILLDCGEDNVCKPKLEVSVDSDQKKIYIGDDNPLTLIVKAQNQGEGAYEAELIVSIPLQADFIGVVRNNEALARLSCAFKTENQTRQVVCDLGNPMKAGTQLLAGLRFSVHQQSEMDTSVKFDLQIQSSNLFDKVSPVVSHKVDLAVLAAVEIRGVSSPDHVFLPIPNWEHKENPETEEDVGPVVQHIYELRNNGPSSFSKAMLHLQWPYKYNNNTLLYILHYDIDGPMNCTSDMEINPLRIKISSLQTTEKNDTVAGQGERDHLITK
T1 sequence (P06756 891-1048 partner limits assumed): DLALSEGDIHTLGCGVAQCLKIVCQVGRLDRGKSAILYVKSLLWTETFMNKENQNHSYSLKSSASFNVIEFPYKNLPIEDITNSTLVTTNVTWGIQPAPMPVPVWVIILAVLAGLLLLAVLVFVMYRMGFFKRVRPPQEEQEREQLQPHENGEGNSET
T1 sequence (P05106 27-788): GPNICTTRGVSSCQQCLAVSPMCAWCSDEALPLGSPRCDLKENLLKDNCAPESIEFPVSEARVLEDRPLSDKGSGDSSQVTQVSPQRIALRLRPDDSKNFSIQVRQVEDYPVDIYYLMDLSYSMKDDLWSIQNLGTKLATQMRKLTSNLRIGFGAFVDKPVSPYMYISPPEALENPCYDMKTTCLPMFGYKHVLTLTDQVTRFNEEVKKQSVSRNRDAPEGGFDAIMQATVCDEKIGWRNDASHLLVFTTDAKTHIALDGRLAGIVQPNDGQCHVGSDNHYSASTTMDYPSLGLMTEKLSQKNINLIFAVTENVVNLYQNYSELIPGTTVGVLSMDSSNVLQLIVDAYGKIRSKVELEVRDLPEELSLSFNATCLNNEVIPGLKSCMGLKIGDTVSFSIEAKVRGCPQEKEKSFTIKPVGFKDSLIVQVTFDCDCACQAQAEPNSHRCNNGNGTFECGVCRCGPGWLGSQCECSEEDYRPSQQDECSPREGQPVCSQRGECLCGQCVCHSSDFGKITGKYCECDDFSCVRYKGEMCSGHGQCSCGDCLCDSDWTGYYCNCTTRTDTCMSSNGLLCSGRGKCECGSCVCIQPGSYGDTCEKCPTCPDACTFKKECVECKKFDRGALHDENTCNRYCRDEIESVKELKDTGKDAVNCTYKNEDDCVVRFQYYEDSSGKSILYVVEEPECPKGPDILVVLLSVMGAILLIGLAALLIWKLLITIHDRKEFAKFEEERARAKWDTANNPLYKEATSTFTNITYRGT
Description: αVβ3 integrin purification from HUVE cell lysates was done as described in Pytela et al., Meth. Enzynmol., 144:475-489 (1987). Briefly, 10^8 cells were lysed in 1 ml of PBS containing 1 mM CaCl2, 1 mM MgCl2, 0.5 mM PMSF and 100 mM octylglucoside. […] The purity of the integrin was determined by SDS-PAGE under non-reducing conditions, followed by silver staining.
The integrin binding assay was developed in accordance with the disclosures in Brooks et al., Cell 85:683-693 (1996), and Lam, S. C-T (1992). […] Bound proteins were detected by specific polyclonal antisera (anti-Cyr61 antiserum was diluted 1:500 and anti-vitronectin antiserum was diluted 1:1000 in PBS containing 1 mM CaCl2, 1 mM MgCl2, and 5 mg/ml BSA) followed by a secondary antibody-horseradish peroxidase conjugate (1:20000 in the same buffer). […] Horseradish peroxidase (HRP) was detected with an HRP immunoassay kit (Bio-Rad Laboratories). The colorimetric reaction was developed for 15-30 minutes at room temperature, stopped by the addition of H2SO4, and the absorbance at 450 nm was measured. […]

B1: Cyr61: Cysteine-rich ECM signaling protein; murine sequence SEQ ID NO:2, recombinant from Baculovirus-infected Sf9 cells (protein, listed as Mus musculus)
chain: MSSSTFRTLAVAVTLLHLTRLALSTCPAACHCPLEAPKCAPGVGLVRDGCGCCKVCAKQLNEDCSKTQPCDHTKGLECNFGASSTALKGICRAQSEGRPCEYNSRIYQNGESFQPNCKHQCTCIDGAVGCIPLCPQELSLPNLGCPNPRLVKVSGQCCEEWVCDEDSIKDSLDDQDDLLGLDASEVELTRNNELIAIGKGSSLKRLPVFGTEPRVLFNPLHAHGQKCIVQTTSWSQCSKSCGTGISTRVTNDNPECRLVKETRICEVRPCGQPVYSSLKKGKKCSKTKKSPEPVRFTYAGCSSVKKYRPKYCGSCVDGRCCTPLQTRTVKMRFRCEDGEMFSKNVMMIQSCKCNYNCPHPNEASFRLYSLFNDIHKFRD
With B1 the “migrated cells per three high-powered fields” value ([1]; 10 ng/ml) was 64 cells, the “migrated cells per three high-powered fields” value ([1]; 100 ng/ml) was “approximately 72 cells” and the “migrated cells per three high-powered fields” value ([1]; 1 μg/ml) was 87 cells. For the same molecule, the “migrated cells per three high-powered fields” value ([1]; 10 μg/ml) was “approximately 57 cells”, the “migrated cells per three high-powered fields” value ([1]; approximately 7 μg/ml) was “about 61 cells” and the “binding to immobilized αVβ3 integrin” value [2] was “bound to the immobilized integrin”.
